# Results from US20150344570A1 (published 2015).
# Target: T1, FcγRIa (human, UniProt P12314 16-292)
# T1 construct: extracellular domain; Soluble extracellular domain expressed in FreeStyle293 cells, used as analyte in Biacore; also called FcgRI; 1a; not shown: His tag attached to the C terminus
# Test: SPR (Biacore); Ho Ab vs HoCon Ab GpH7-B3/GpL16-k0
# Experimental: Analysis of interaction between objective antibody and the FcγR was carried out using Biacore T100 (GE Healthcare). HBS-EP+ (GE Healthcare) was used as the running buffer, and the measurement temperature was set to 25° C. Chips produced by immobilizing the antigen peptide by the amine coupling method to a Series S Sencor Chip CM5 (GE Healthcare), or alternatively, chips produced by allowing preliminarily biotinylated antigen peptides to interact with and immobilize onto a Series S Sensor Chip SA (certified) (GE Healthcare) were used. Antibodies of interest were captured onto an antigen peptide-immobilized chip, and allowed to interact to each FcγR diluted with running buffer. To regenerate and repeatedly use the chip, the antibodies captured on the chip were washed off by reacting 10 mM glycine-HCl, pH 1.5.
# T1 sequence (P12314 16-292): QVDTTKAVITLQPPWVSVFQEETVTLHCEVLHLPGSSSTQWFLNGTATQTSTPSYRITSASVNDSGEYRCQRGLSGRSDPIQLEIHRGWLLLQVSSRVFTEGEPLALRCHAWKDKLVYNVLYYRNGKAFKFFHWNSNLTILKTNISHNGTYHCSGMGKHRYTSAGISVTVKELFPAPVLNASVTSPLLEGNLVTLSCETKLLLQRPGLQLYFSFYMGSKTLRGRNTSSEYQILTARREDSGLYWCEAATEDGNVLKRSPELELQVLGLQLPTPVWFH
row,Binder,Ho/Con_1a
1,"GpH7-B3 variant S298_06M/GpL16-k0 (antibody, human IgG1, kappa, also called Ho Ab S298_06M) heavy: not shown light: DIVMTQSPLSLPVTPGEPASISCQASESLVHSNRNTYLHWYLQKPGQSPQLLIYKVSNRFSGVPDRFSGSGSGTDFTLKISRVEAEDVGVYYCSQNTHVPPTFGQGTKVEIERTVAAPSVFIFPPSDEQLKSGTASVVCLLNNFYPREAKVQWKVDNALQSGNSQESVTEQDSKDSTYSLSSTLTLSKADYEKHKVYACEVTHQGLSSPVTKSFNRGEC","106 relative binding, control = 100"
2,"GpH7-B3 variant S298_07I/GpL16-k0 (antibody, human IgG1, kappa, also called Ho Ab S298_07I) heavy: not shown light: DIVMTQSPLSLPVTPGEPASISCQASESLVHSNRNTYLHWYLQKPGQSPQLLIYKVSNRFSGVPDRFSGSGSGTDFTLKISRVEAEDVGVYYCSQNTHVPPTFGQGTKVEIERTVAAPSVFIFPPSDEQLKSGTASVVCLLNNFYPREAKVQWKVDNALQSGNSQESVTEQDSKDSTYSLSSTLTLSKADYEKHKVYACEVTHQGLSSPVTKSFNRGEC","103 relative binding, control = 100"
3,"GpH7-B3 variant S298_08L/GpL16-k0 (antibody, human IgG1, kappa, also called Ho Ab S298_08L) heavy: not shown light: DIVMTQSPLSLPVTPGEPASISCQASESLVHSNRNTYLHWYLQKPGQSPQLLIYKVSNRFSGVPDRFSGSGSGTDFTLKISRVEAEDVGVYYCSQNTHVPPTFGQGTKVEIERTVAAPSVFIFPPSDEQLKSGTASVVCLLNNFYPREAKVQWKVDNALQSGNSQESVTEQDSKDSTYSLSSTLTLSKADYEKHKVYACEVTHQGLSSPVTKSFNRGEC","104 relative binding, control = 100"
4,"GpH7-B3 variant S298_10E/GpL16-k0 (antibody, human IgG1, kappa, also called Ho Ab S298_10E) heavy: not shown light: DIVMTQSPLSLPVTPGEPASISCQASESLVHSNRNTYLHWYLQKPGQSPQLLIYKVSNRFSGVPDRFSGSGSGTDFTLKISRVEAEDVGVYYCSQNTHVPPTFGQGTKVEIERTVAAPSVFIFPPSDEQLKSGTASVVCLLNNFYPREAKVQWKVDNALQSGNSQESVTEQDSKDSTYSLSSTLTLSKADYEKHKVYACEVTHQGLSSPVTKSFNRGEC","106 relative binding, control = 100"
5,"GpH7-B3 variant S298_12R/GpL16-k0 (antibody, human IgG1, kappa, also called Ho Ab S298_12R) heavy: not shown light: DIVMTQSPLSLPVTPGEPASISCQASESLVHSNRNTYLHWYLQKPGQSPQLLIYKVSNRFSGVPDRFSGSGSGTDFTLKISRVEAEDVGVYYCSQNTHVPPTFGQGTKVEIERTVAAPSVFIFPPSDEQLKSGTASVVCLLNNFYPREAKVQWKVDNALQSGNSQESVTEQDSKDSTYSLSSTLTLSKADYEKHKVYACEVTHQGLSSPVTKSFNRGEC","94.5 relative binding, control = 100"
6,"GpH7-B3 variant S298_14T/GpL16-k0 (antibody, human IgG1, kappa, also called Ho Ab S298_14T) heavy: not shown light: DIVMTQSPLSLPVTPGEPASISCQASESLVHSNRNTYLHWYLQKPGQSPQLLIYKVSNRFSGVPDRFSGSGSGTDFTLKISRVEAEDVGVYYCSQNTHVPPTFGQGTKVEIERTVAAPSVFIFPPSDEQLKSGTASVVCLLNNFYPREAKVQWKVDNALQSGNSQESVTEQDSKDSTYSLSSTLTLSKADYEKHKVYACEVTHQGLSSPVTKSFNRGEC","106 relative binding, control = 100"
7,"GpH7-B3 variant S298_15Y/GpL16-k0 (antibody, human IgG1, kappa, also called Ho Ab S298_15Y) heavy: not shown light: DIVMTQSPLSLPVTPGEPASISCQASESLVHSNRNTYLHWYLQKPGQSPQLLIYKVSNRFSGVPDRFSGSGSGTDFTLKISRVEAEDVGVYYCSQNTHVPPTFGQGTKVEIERTVAAPSVFIFPPSDEQLKSGTASVVCLLNNFYPREAKVQWKVDNALQSGNSQESVTEQDSKDSTYSLSSTLTLSKADYEKHKVYACEVTHQGLSSPVTKSFNRGEC","103 relative binding, control = 100"
8,"GpH7-B3 variant S298_16H/GpL16-k0 (antibody, human IgG1, kappa, also called Ho Ab S298_16H) heavy: not shown light: DIVMTQSPLSLPVTPGEPASISCQASESLVHSNRNTYLHWYLQKPGQSPQLLIYKVSNRFSGVPDRFSGSGSGTDFTLKISRVEAEDVGVYYCSQNTHVPPTFGQGTKVEIERTVAAPSVFIFPPSDEQLKSGTASVVCLLNNFYPREAKVQWKVDNALQSGNSQESVTEQDSKDSTYSLSSTLTLSKADYEKHKVYACEVTHQGLSSPVTKSFNRGEC","107 relative binding, control = 100"
9,"GpH7-B3 variant S298_18N/GpL16-k0 (antibody, human IgG1, kappa, also called Ho Ab S298_18N) heavy: not shown light: DIVMTQSPLSLPVTPGEPASISCQASESLVHSNRNTYLHWYLQKPGQSPQLLIYKVSNRFSGVPDRFSGSGSGTDFTLKISRVEAEDVGVYYCSQNTHVPPTFGQGTKVEIERTVAAPSVFIFPPSDEQLKSGTASVVCLLNNFYPREAKVQWKVDNALQSGNSQESVTEQDSKDSTYSLSSTLTLSKADYEKHKVYACEVTHQGLSSPVTKSFNRGEC","104 relative binding, control = 100"
10,"GpH7-B3 variant S298_19Q/GpL16-k0 (antibody, human IgG1, kappa, also called Ho Ab S298_19Q) heavy: not shown light: DIVMTQSPLSLPVTPGEPASISCQASESLVHSNRNTYLHWYLQKPGQSPQLLIYKVSNRFSGVPDRFSGSGSGTDFTLKISRVEAEDVGVYYCSQNTHVPPTFGQGTKVEIERTVAAPSVFIFPPSDEQLKSGTASVVCLLNNFYPREAKVQWKVDNALQSGNSQESVTEQDSKDSTYSLSSTLTLSKADYEKHKVYACEVTHQGLSSPVTKSFNRGEC","105 relative binding, control = 100"
11,"GpH7-B3 variant S298_20W/GpL16-k0 (antibody, human IgG1, kappa, also called Ho Ab S298_20W) heavy: not shown light: DIVMTQSPLSLPVTPGEPASISCQASESLVHSNRNTYLHWYLQKPGQSPQLLIYKVSNRFSGVPDRFSGSGSGTDFTLKISRVEAEDVGVYYCSQNTHVPPTFGQGTKVEIERTVAAPSVFIFPPSDEQLKSGTASVVCLLNNFYPREAKVQWKVDNALQSGNSQESVTEQDSKDSTYSLSSTLTLSKADYEKHKVYACEVTHQGLSSPVTKSFNRGEC","71.5 relative binding, control = 100"

# The remaining lines, values ahead:
row,Ho/Con_1a,Binder
1,"103 relative binding, control = 100","GpH7-B3 variant S324_02A/GpL16-k0 (antibody, human IgG1, kappa, also called Ho Ab S324_02A) heavy: not shown light: DIVMTQSPLSLPVTPGEPASISCQASESLVHSNRNTYLHWYLQKPGQSPQLLIYKVSNRFSGVPDRFSGSGSGTDFTLKISRVEAEDVGVYYCSQNTHVPPTFGQGTKVEIERTVAAPSVFIFPPSDEQLKSGTASVVCLLNNFYPREAKVQWKVDNALQSGNSQESVTEQDSKDSTYSLSSTLTLSKADYEKHKVYACEVTHQGLSSPVTKSFNRGEC"
2,"103 relative binding, control = 100","GpH7-B3 variant S324_03V/GpL16-k0 (antibody, human IgG1, kappa, also called Ho Ab S324_03V) heavy: not shown light: DIVMTQSPLSLPVTPGEPASISCQASESLVHSNRNTYLHWYLQKPGQSPQLLIYKVSNRFSGVPDRFSGSGSGTDFTLKISRVEAEDVGVYYCSQNTHVPPTFGQGTKVEIERTVAAPSVFIFPPSDEQLKSGTASVVCLLNNFYPREAKVQWKVDNALQSGNSQESVTEQDSKDSTYSLSSTLTLSKADYEKHKVYACEVTHQGLSSPVTKSFNRGEC"
3,"103 relative binding, control = 100","GpH7-B3 variant S324_08L/GpL16-k0 (antibody, human IgG1, kappa, also called Ho Ab S324_08L) heavy: not shown light: DIVMTQSPLSLPVTPGEPASISCQASESLVHSNRNTYLHWYLQKPGQSPQLLIYKVSNRFSGVPDRFSGSGSGTDFTLKISRVEAEDVGVYYCSQNTHVPPTFGQGTKVEIERTVAAPSVFIFPPSDEQLKSGTASVVCLLNNFYPREAKVQWKVDNALQSGNSQESVTEQDSKDSTYSLSSTLTLSKADYEKHKVYACEVTHQGLSSPVTKSFNRGEC"
4,"100 relative binding, control = 100","GpH7-B3 variant S324_11K/GpL16-k0 (antibody, human IgG1, kappa, also called Ho Ab S324_11K) heavy: not shown light: DIVMTQSPLSLPVTPGEPASISCQASESLVHSNRNTYLHWYLQKPGQSPQLLIYKVSNRFSGVPDRFSGSGSGTDFTLKISRVEAEDVGVYYCSQNTHVPPTFGQGTKVEIERTVAAPSVFIFPPSDEQLKSGTASVVCLLNNFYPREAKVQWKVDNALQSGNSQESVTEQDSKDSTYSLSSTLTLSKADYEKHKVYACEVTHQGLSSPVTKSFNRGEC"
5,"101 relative binding, control = 100","GpH7-B3 variant S324_12R/GpL16-k0 (antibody, human IgG1, kappa, also called Ho Ab S324_12R) heavy: not shown light: DIVMTQSPLSLPVTPGEPASISCQASESLVHSNRNTYLHWYLQKPGQSPQLLIYKVSNRFSGVPDRFSGSGSGTDFTLKISRVEAEDVGVYYCSQNTHVPPTFGQGTKVEIERTVAAPSVFIFPPSDEQLKSGTASVVCLLNNFYPREAKVQWKVDNALQSGNSQESVTEQDSKDSTYSLSSTLTLSKADYEKHKVYACEVTHQGLSSPVTKSFNRGEC"
